From PMC6939906, “Leucine zipper transcription factor-like 1 binds adaptor protein complex-1 and 2 and participates in trafficking of transferrin receptor 1” (PLoS ONE, 2020)

Experiments:
Settings in all cases: both partners purified
[1] = biological target: T1, GST-β1 (glutathione S-transferase fused β1 subunit of AP-1) (human, UniProt Q10567 1-949); assay: pull-down; Factor Xa cleaved MBP-LZTFL1 incubated with GST-fused β1 subunit of AP-1 held on Glutathione Sepharose 4B
T1 construct: cloned in pGEX-6P-1; also called GST-β1 (AP-1); GST-fused β1 subunit of AP-1; source: E. coli, purified (Glutathione Sepharose 4B)
T1 sequence (looked up): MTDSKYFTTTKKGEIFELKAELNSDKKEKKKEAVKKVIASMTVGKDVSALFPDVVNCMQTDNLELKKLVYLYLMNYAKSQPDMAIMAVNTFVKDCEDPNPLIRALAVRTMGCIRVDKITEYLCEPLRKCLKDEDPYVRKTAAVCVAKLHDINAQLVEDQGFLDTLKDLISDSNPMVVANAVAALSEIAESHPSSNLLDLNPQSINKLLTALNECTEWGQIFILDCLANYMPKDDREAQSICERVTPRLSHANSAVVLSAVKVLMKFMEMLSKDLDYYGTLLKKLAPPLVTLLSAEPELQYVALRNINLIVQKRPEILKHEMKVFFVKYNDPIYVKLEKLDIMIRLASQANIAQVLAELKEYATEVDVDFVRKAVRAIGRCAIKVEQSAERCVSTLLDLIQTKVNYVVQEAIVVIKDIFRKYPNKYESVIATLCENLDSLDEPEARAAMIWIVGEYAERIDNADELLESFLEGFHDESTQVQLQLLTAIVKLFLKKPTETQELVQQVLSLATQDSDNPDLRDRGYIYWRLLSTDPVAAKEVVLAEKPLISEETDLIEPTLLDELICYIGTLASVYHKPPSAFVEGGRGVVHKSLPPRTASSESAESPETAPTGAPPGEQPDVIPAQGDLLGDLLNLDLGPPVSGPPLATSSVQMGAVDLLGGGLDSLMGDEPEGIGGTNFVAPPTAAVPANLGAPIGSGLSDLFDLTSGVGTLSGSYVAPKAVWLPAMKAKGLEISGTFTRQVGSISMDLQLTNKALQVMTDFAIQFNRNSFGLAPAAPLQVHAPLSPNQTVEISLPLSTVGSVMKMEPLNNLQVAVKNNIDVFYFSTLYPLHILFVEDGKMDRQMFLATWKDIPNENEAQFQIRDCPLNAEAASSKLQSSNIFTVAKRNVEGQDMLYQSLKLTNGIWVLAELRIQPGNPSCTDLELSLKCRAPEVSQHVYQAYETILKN

[2] = biological target: T1, GST-β1 (glutathione S-transferase fused …); assay: pull-down; MBP-fused proteins held on amylose resin, purified GST-fused proteins added, overnight at 4°C; blots with anti-MBP and anti-GST
[3] = biological target: T2, GST-β2 (GST-fused β2 subunit of AP-2) (human, UniProt P63010 1-937); assay: as above
T2 construct: cloned in pGEX-6P-1; also called GST-β2 (AP-2); AP2B1; source: E. coli, purified (Glutathione Sepharose 4B)
T2 sequence (looked up): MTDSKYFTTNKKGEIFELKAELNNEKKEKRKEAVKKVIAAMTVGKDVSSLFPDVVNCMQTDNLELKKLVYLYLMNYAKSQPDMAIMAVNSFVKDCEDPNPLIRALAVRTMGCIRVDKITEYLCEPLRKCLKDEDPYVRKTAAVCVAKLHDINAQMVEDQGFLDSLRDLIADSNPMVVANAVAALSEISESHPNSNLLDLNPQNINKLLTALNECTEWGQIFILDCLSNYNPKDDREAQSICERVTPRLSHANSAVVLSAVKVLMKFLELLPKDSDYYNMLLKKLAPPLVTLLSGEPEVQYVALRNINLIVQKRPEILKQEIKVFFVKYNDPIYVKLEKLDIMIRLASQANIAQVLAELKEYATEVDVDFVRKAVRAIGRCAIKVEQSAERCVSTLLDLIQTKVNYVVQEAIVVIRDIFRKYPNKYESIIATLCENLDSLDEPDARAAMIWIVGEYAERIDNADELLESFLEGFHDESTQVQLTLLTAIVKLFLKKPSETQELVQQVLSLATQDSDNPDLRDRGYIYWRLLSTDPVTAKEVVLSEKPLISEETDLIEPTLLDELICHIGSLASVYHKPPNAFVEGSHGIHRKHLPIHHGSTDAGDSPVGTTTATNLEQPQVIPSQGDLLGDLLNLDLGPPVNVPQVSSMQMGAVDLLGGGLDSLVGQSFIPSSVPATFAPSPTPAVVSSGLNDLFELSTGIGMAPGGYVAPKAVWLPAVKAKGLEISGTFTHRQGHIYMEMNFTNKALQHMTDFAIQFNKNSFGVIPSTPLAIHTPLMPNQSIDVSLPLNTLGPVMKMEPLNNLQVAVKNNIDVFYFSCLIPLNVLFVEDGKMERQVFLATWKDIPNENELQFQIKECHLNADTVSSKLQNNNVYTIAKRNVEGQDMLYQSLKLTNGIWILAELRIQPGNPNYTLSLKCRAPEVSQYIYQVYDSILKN

B1: LZTFL1 from purified MBP-LZTFL1 cleaved by Factor Xa (natural protein, human, UniProt Q9NQ48-1 1-299, looked up)
chain: MAELGLNEHHQNEVINYMRFARSKRGLRLKTVDSCFQDLKESRLVEDTFTIDEVSEVLNGLQAVVHSEVESELINTAYTNVLLLRQLFAQAEKWYLKLQTDISELENRELLEQVAEFEKAEITSSNKKPILDVTKPKLAPLNEGGTAELLNKEILRLQEENEKLKSRLKTIEIQATNALDEKSKLEKALQDLQLDQGNQKDFIKAQDLSNLENTVAALKSEFQKTLNDKTENQKSLEENLATAKHDLLRVQEQLHMAEKELEKKFQQTAAYRNMKEILTKKNDQIKDLRKRLAQYEPED
notes: human LZTFL1, wild type; also called Factor Xa cleaved MBP-LZTFL1; source: E. coli, purified as MBP fusion (amylose resin), cleaved with Factor Xa
Q: Does B1 bind [1]?
A: binds

B2: MBP-LZTFL1 (maltose-binding protein fused with human LZTFL1) (natural protein, UniProt Q9NQ48-1 1-299, looked up)
chain: MAELGLNEHHQNEVINYMRFARSKRGLRLKTVDSCFQDLKESRLVEDTFTIDEVSEVLNGLQAVVHSEVESELINTAYTNVLLLRQLFAQAEKWYLKLQTDISELENRELLEQVAEFEKAEITSSNKKPILDVTKPKLAPLNEGGTAELLNKEILRLQEENEKLKSRLKTIEIQATNALDEKSKLEKALQDLQLDQGNQKDFIKAQDLSNLENTVAALKSEFQKTLNDKTENQKSLEENLATAKHDLLRVQEQLHMAEKELEKKFQQTAAYRNMKEILTKKNDQIKDLRKRLAQYEPED
notes: human LZTFL1, wild type; cloned in pMAL-c2X; also called MBP-fused LZTFL1; wild-type LZTFL1; source: E. coli, purified (amylose resin)
Q: Does B2 bind [2]?
A: binds

Q: Does B2 bind [3]?
A: binds
